{"source": "patent US11787839B2", "about": "“Targeting α2δ-1-bound glutamate receptors for treating diseases and disorders” (Board of Regents, The University of Texas System, priority 2017, dated 2023)", "key": {"[1]": {"test_system": "surface GluN1, GluN2A, GluN2B", "test": "HEK293 cell membrane surface protein analysis (biotinylation)", "format": "cell-based, rat", "parameters": "dose or concentration left out as unconfirmed", "conditions": "gabapentin for 60 min", "protocol": "Isolation and analysis of HEK293 cell membrane surface proteins: HEK293 cells were transfected with GluN1-1a, GluN2A/GluN2B and/or α2δ-1 after they had grown to 80-90% confluence in 75-cm^2 culture flasks. Cell surface biotinylation was performed using the Pierce Cell Surface Protein Isolation Kit (#89881, Thermo Fisher Scientific) according to the manufacturer's instructions. Briefly, cells were incubated with Sulfo-NHS—SS-biotin, which covalently binds to primary amino groups of extracellular proteins at 4° C. with constant rotation for 30 min. Excess biotin was quenched with quenching solution (Chaplan et al., 1997). The cells were washed, harvested by gentle scraping and lysed using the provided lysis buffer in the cocktail of protease and phosphatase inhibitors (#78440, Thermo Fisher Scientific) for 30 min at 4° C. The lysates were then centrifuged for 2 min at 10,000×g at 4° C., and the clear supernatants were added to NeutrAvidin agarose and incubated for 60 min at 25° C. with end-over-end mixing. The unbound (unbiotinylated) proteins, representing the intracellular fraction, were separated from the captured surface proteins by centrifugation of the column. […] Protein bands were quantified using Image Studio software (version 3.1, LI-COR Biosciences)."}, "[2]": {"target": "T1, α2δ-1-GluN1 interaction (Rattus norvegicus, UniProt P35439+Q00959)", "T1 construct": "expressed in transfected cells; host or cells: HEK293", "format": "cell-based", "conditions": "HEK293; 0.01, 0.1, or 1 mM peptide"}, "[3]": {"target": "T2, N-type Ca2+ channels (Cav2.2, Cavb1, α2δ-1) (UniProt P54290+Q00975)", "T2 construct": "expressed in transfected cells; host or cells: HEK293", "T2 sequence (Q00975 whole entry)": "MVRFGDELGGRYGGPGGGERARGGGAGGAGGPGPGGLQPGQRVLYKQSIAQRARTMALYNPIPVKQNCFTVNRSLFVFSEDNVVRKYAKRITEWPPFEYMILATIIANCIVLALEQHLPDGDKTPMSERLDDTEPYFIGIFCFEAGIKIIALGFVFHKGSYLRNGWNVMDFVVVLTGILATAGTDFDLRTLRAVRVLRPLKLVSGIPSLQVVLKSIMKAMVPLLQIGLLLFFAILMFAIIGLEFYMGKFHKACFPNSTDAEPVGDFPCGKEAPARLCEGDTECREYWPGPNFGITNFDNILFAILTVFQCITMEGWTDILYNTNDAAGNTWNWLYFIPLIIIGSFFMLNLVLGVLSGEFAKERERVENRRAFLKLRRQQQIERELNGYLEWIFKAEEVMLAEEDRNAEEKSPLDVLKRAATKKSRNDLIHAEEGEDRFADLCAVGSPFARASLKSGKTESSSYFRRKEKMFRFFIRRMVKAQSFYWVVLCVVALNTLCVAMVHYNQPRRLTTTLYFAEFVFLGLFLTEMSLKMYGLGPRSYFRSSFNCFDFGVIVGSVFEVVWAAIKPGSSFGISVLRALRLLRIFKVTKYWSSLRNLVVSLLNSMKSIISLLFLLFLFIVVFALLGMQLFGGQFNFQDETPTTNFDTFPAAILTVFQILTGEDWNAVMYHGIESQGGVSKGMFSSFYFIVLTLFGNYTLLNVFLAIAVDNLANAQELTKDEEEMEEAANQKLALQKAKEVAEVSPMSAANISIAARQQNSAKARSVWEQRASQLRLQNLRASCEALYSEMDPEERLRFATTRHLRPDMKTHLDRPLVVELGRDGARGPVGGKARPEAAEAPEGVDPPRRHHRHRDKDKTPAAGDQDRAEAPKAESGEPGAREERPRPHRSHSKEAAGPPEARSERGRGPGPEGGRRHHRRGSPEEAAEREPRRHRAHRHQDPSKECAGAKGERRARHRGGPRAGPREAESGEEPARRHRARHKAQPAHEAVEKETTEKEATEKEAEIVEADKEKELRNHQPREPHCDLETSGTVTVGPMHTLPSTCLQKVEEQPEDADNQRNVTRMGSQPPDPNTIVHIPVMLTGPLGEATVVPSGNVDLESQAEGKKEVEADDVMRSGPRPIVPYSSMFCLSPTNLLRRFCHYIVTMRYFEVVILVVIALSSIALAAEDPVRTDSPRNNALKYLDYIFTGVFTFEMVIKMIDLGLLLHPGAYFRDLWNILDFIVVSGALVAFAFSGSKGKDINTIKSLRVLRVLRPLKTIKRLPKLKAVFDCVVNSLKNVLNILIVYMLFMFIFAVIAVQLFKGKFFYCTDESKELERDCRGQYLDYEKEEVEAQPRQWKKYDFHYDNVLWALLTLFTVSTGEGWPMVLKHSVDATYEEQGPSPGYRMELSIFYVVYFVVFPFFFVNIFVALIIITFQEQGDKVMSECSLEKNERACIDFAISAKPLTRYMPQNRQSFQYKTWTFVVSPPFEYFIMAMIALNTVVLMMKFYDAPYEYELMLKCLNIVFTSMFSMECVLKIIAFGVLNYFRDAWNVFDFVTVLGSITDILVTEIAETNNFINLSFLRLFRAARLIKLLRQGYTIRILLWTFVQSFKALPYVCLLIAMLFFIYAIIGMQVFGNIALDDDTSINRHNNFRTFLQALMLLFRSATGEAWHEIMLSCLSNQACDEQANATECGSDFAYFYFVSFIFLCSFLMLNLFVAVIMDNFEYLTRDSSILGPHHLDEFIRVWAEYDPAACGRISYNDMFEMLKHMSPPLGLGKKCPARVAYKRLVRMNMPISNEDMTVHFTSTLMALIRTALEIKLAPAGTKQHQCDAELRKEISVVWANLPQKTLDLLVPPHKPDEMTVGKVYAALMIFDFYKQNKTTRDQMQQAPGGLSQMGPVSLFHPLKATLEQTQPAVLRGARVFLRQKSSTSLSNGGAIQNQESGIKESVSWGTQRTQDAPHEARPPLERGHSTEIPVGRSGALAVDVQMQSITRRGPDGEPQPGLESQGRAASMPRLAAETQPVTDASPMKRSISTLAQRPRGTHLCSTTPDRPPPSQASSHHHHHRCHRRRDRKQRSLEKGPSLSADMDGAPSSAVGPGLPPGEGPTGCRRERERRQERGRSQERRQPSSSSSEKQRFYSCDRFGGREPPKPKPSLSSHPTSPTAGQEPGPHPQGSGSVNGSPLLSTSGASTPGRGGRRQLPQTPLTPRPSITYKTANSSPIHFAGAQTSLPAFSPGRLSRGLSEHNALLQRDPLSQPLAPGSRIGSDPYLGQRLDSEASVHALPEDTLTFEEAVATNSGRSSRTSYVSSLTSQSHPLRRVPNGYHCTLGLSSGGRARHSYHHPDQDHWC", "T2 sequence (P54290 25-944)": "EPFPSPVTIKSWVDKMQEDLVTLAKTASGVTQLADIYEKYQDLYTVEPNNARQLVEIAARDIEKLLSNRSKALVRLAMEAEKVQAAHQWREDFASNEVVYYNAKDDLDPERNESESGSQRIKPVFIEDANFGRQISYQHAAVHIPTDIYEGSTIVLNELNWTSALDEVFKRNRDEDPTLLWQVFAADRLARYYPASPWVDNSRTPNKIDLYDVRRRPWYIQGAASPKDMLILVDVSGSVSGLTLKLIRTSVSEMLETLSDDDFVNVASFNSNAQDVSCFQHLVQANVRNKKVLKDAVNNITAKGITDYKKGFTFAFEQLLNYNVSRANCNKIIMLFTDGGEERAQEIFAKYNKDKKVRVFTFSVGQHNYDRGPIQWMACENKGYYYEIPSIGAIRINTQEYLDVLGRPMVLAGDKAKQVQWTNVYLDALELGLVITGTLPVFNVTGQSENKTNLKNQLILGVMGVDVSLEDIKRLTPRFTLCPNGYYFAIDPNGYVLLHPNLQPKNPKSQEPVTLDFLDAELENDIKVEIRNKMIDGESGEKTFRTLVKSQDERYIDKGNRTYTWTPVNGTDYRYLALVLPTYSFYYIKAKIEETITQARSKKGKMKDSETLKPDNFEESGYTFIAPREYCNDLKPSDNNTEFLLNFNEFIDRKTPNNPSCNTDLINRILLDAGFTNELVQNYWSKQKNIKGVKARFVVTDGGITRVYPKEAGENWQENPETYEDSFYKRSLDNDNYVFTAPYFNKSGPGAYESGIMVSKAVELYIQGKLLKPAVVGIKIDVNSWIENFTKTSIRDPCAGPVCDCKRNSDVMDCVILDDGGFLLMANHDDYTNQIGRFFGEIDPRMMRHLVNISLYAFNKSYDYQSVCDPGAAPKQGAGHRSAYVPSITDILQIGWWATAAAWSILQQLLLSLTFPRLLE", "T2 sequence (P54290 945-1091)": "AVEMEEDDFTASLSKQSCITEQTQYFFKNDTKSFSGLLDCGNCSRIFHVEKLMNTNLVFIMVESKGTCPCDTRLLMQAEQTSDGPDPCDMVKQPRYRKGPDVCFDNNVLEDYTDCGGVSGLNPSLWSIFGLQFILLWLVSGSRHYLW", "T2 sequence (Q02641 whole entry, further chain)": "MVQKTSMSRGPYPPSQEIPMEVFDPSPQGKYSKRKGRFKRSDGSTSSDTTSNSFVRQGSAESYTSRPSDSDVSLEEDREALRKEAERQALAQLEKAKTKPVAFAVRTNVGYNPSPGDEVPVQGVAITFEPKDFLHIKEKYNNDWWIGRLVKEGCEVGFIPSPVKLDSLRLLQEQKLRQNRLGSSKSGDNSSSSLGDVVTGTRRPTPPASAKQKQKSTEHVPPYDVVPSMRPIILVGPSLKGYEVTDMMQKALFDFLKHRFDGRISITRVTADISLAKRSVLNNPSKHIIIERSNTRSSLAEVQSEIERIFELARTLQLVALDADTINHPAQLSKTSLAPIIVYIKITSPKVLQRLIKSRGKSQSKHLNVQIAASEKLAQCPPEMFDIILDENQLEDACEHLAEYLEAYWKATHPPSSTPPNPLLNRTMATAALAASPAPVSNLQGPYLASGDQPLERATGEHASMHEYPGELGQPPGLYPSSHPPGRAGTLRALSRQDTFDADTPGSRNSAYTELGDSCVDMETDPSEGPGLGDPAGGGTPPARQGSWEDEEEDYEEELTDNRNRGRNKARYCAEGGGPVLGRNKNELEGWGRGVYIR", "test": "VACC (N-type Ca2+ channel) currents in HEK293 cells", "format": "cell-based", "conditions": "HEK293 cotransfected with Cav2.2, Cavb1 and α2δ-1, 60 min"}, "[4]": {"target": "T3, NMDARs of hippocampal CA1 pyramidal neurons (Mus musculus, UniProt O08532+P35438)", "T3 construct": "from tissue; host or cells: mouse brain slices (hippocampal CA1, hypothalamic PVN, brain tissue membrane extracts)", "T3 sequence (O08532 25-956 limits assumed, other chains not shown)": "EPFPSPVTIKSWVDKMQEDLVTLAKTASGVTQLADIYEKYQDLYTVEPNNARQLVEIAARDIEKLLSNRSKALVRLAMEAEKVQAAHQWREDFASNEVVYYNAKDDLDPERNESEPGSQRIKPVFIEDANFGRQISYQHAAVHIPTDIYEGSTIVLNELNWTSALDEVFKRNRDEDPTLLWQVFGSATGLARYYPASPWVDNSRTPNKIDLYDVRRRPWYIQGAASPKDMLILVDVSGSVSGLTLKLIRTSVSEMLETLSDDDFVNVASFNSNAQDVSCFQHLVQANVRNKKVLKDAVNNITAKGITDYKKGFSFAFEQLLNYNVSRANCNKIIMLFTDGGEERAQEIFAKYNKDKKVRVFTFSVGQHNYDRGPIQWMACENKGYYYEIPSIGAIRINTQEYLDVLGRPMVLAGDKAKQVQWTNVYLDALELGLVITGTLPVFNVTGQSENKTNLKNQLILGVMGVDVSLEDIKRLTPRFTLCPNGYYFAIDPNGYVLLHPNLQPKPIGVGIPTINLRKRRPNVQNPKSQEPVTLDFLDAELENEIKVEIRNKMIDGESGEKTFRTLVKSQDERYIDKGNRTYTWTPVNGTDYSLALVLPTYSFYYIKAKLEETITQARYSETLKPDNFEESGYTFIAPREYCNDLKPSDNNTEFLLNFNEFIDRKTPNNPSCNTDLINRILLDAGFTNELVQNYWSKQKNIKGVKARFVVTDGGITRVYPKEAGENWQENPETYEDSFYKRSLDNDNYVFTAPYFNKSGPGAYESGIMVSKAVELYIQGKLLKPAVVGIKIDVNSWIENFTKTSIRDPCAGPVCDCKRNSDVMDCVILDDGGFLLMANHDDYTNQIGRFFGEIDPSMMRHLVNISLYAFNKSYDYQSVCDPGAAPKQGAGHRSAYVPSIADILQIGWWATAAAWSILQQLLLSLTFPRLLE", "test": "Puff NMDAR currents of hippocampal CA1 neurons, oxygen-glucose deprivation (OGD)", "format": "cell-based", "conditions": "gabapentin 30 or 100 μM, 60 min", "protocol": "Brain slice preparation and recording. The tissues containing the hippocampus were sliced sagittally (300 μm thick) using a vibratome. […] NMDAR currents of pyramidal neurons in the hippocampal CA1 region were recorded by puff application of 100 μM NMDA directly to the recorded neuron at a holding potential of −60 mV."}, "[5]": {"target": "T4, α2δ-1-GluN1 protein complex (Mus musculus, UniProt O08532+P35438)", "T4 construct": "from tissue; host or cells: mouse brain slices (hippocampal CA1, hypothalamic PVN, brain tissue membrane extracts)", "T4 sequence (O08532 25-956 limits assumed, other chains not shown)": "as above", "test": "Co-IP of α2δ-1 and GluN1 in mouse brain slices", "format": "cell-based", "protocol": "FIGS. 22A-22D: α2δ-1-bound NMDARs contribute to brain injury and neurological deficit caused by MCAO in the brain. (A) Upper: Original gel images of coimmunoprecipitation (co-IP) analysis show the interaction between α2δ-1 and GluN1 in two samples from mouse brain tissues; Lower: Effect of α2δ-1Tat peptide (1 μM for 60 min) on the α2δ-1-GluN1 protein complex in mouse brain tissues (n=6 mice per group). (B) Representative gel images and quantification of co-IP analysis show the effect of OGD on the α2δ-1-GluN1 or α2δ-1-Cav2.2 association in mouse brain tissues (n=6 mice per group). IgG and input were used as negative and positive controls, respectively. (C) Original gel images and quantification of co-IP analysis show the effect of α2δ-1Tat peptide (P) and control peptide (C; both 1 μM for 30 min) on the α2δ-1-GluN1 or α2δ-1-Cav2.2 association in mouse brain slices subjected to OGD (O, n=6 mice per group). (D) Neurological severity scores (left) and representative TTC staining and quantification (right) of brain infarct volume in MCAO mice treated with α2δ-1Tat peptide or control peptide (both 200 μg/kg, i.p.) at 15 min before MCAO and immediately before reperfusion (n=8 mice per group). Data are shown as means±SEM. *p<0.05, **p<0.01 compared with the control peptide- or vehicle-treated group (paired Student's t-test for panels B-D and F; Mann-Whitney test for panel E). […]"}}, "note": "“Also recorded” adds a separate entry of the source."}
{"molecule": "NCC1(CC(=O)O)CCCCC1", "note": "[gabapentin]", "values": [{"measurement": "surface protein levels of GluN1, GluN2A and GluN2B increased by α2δ-1 coexpression", "setting": "[1]", "result": "normalized; also recorded: reversed"}]}
{"molecule": "YGRKKRRQRRRVSGLNPSLWSIFGLQFILLWLVSGSRHYLW (a2d1 peptide) [α2δ-1Tat peptide, 30-amino-acid peptide mimicking the C-terminal domain of α2δ-1 fused to the cell-penetrating peptide Tat]", "values": [{"measurement": "direct interaction between α2δ-1 and GluN1", "setting": "[2]", "result": "disrupted"}, {"measurement": "VACC (N-type Ca2+ channel) currents", "setting": "[3]", "result": "no effect"}, {"measurement": "VACC (N-type Ca2+ channel) currents", "setting": "[3]; listed as α2δ-1 Tat peptide", "result": "had no significant effect"}, {"measurement": "OGD-induced increase in the puff NMDAR currents", "setting": "[4]; 5 min OGD, peptides 1 μM", "result": "failed to increase"}, {"measurement": "basal puff NMDAR currents of hippocampal CA1 pyramidal neurons", "setting": "[4]; before OGD, peptide 1 μM", "result": "had no effect"}, {"measurement": "α2δ-1-GluN1 interaction in brain tissues subjected to OGD", "setting": "[5]; OGD, 1 μM for 30 min", "result": "substantially reduced"}, {"measurement": "α2δ-1-GluN1 protein complex in brain tissues", "setting": "[5]; brain slices, 1 μM for 60 min", "result": "large reduction"}]}
